B1: W351A: GOOX variant with W351A relative to SEQ ID NO: 1 (protein, listed as Sarocladium strictum)
chain: NSINACLAAADVEFHEEDSEGWEMDGTAFNLRVDYDPVAIAIPRSTEDIAAAVQCGLDAGVQISAKGGGHSYGSYGFGGEDGHLMLELDRMYRVSVDDDNVATIQGGARLGYTALELLDQGNRALTHGTCPAVGIGGHVLGGGYGFATHTHGLTLDWLVGATVVLADASIVHVSKTENADLFWALRGGGGGFAIVSEFEFNTFEAPEIITTYQVTTTWNRKQHVAGLKALQDWAENTMPRELSMRLEINANALNWEGNYFGNAKDLKKVLQPIMKKAGGKSTISKLVETDWYGQINTYLYGADLNITYNYDVHEYFYANSLTAPRLSDEAISAFVDYKFDNSSVRPGRGWAIQWDFHGGKNSALASHSNDETAYAHRDQLWLWQFYDNIYDYENNTSPYPESGFEFMQGFVATIEDTLPEDRKGKYFNYADTTLDKEEAQKLYWRGNLEKLQAIKAKYDPEDVFGNVVSVEPIA
modifications: (1)..(206) FAD-binding domain; (207)..(474) substrate-binding domain
B2: Q353A: GOOX variant with Q353A relative to SEQ ID NO: 1 (protein, listed as Sarocladium strictum)
chain: NSINACLAAADVEFHEEDSEGWEMDGTAFNLRVDYDPVAIAIPRSTEDIAAAVQCGLDAGVQISAKGGGHSYGSYGFGGEDGHLMLELDRMYRVSVDDDNVATIQGGARLGYTALELLDQGNRALTHGTCPAVGIGGHVLGGGYGFATHTHGLTLDWLVGATVVLADASIVHVSKTENADLFWALRGGGGGFAIVSEFEFNTFEAPEIITTYQVTTTWNRKQHVAGLKALQDWAENTMPRELSMRLEINANALNWEGNYFGNAKDLKKVLQPIMKKAGGKSTISKLVETDWYGQINTYLYGADLNITYNYDVHEYFYANSLTAPRLSDEAISAFVDYKFDNSSVRPGRGWWIAWDFHGGKNSALASHSNDETAYAHRDQLWLWQFYDNIYDYENNTSPYPESGFEFMQGFVATIEDTLPEDRKGKYFNYADTTLDKEEAQKLYWRGNLEKLQAIKAKYDPEDVFGNVVSVEPIA
modifications: (1)..(206) FAD-binding domain; (207)..(474) substrate-binding domain
B3: Q353N: GOOX variant with Q353N relative to SEQ ID NO: 1 (protein, listed as Sarocladium strictum)
chain: NSINACLAAADVEFHEEDSEGWEMDGTAFNLRVDYDPVAIAIPRSTEDIAAAVQCGLDAGVQISAKGGGHSYGSYGFGGEDGHLMLELDRMYRVSVDDDNVATIQGGARLGYTALELLDQGNRALTHGTCPAVGIGGHVLGGGYGFATHTHGLTLDWLVGATVVLADASIVHVSKTENADLFWALRGGGGGFAIVSEFEFNTFEAPEIITTYQVTTTWNRKQHVAGLKALQDWAENTMPRELSMRLEINANALNWEGNYFGNAKDLKKVLQPIMKKAGGKSTISKLVETDWYGQINTYLYGADLNITYNYDVHEYFYANSLTAPRLSDEAISAFVDYKFDNSSVRPGRGWWINWDFHGGKNSALASHSNDETAYAHRDQLWLWQFYDNIYDYENNTSPYPESGFEFMQGFVATIEDTLPEDRKGKYFNYADTTLDKEEAQKLYWRGNLEKLQAIKAKYDPEDVFGNVVSVEPIA
modifications: (1)..(206) FAD-binding domain; (207)..(474) substrate-binding domain
B4: Y300N: GOOX variant with Y300N relative to SEQ ID NO: 1 (protein, listed as Sarocladium strictum)
chain: NSINACLAAADVEFHEEDSEGWEMDGTAFNLRVDYDPVAIAIPRSTEDIAAAVQCGLDAGVQISAKGGGHSYGSYGFGGEDGHLMLELDRMYRVSVDDDNVATIQGGARLGYTALELLDQGNRALTHGTCPAVGIGGHVLGGGYGFATHTHGLTLDWLVGATVVLADASIVHVSKTENADLFWALRGGGGGFAIVSEFEFNTFEAPEIITTYQVTTTWNRKQHVAGLKALQDWAENTMPRELSMRLEINANALNWEGNYFGNAKDLKKVLQPIMKKAGGKSTISKLVETDWYGQINTYLNGADLNITYNYDVHEYFYANSLTAPRLSDEAISAFVDYKFDNSSVRPGRGWWIQWDFHGGKNSALASHSNDETAYAHRDQLWLWQFYDNIYDYENNTSPYPESGFEFMQGFVATIEDTLPEDRKGKYFNYADTTLDKEEAQKLYWRGNLEKLQAIKAKYDPEDVFGNVVSVEPIA
modifications: (1)..(206) FAD-binding domain; (207)..(474) substrate-binding domain
B5: E314A: GOOX variant with E314A relative to SEQ ID NO: 1 (protein, listed as Sarocladium strictum)
chain: NSINACLAAADVEFHEEDSEGWEMDGTAFNLRVDYDPVAIAIPRSTEDIAAAVQCGLDAGVQISAKGGGHSYGSYGFGGEDGHLMLELDRMYRVSVDDDNVATIQGGARLGYTALELLDQGNRALTHGTCPAVGIGGHVLGGGYGFATHTHGLTLDWLVGATVVLADASIVHVSKTENADLFWALRGGGGGFAIVSEFEFNTFEAPEIITTYQVTTTWNRKQHVAGLKALQDWAENTMPRELSMRLEINANALNWEGNYFGNAKDLKKVLQPIMKKAGGKSTISKLVETDWYGQINTYLYGADLNITYNYDVHAYFYANSLTAPRLSDEAISAFVDYKFDNSSVRPGRGWWIQWDFHGGKNSALASHSNDETAYAHRDQLWLWQFYDNIYDYENNTSPYPESGFEFMQGFVATIEDTLPEDRKGKYFNYADTTLDKEEAQKLYWRGNLEKLQAIKAKYDPEDVFGNVVSVEPIA
modifications: (1)..(206) FAD-binding domain; (207)..(474) substrate-binding domain
B6: W351F: GOOX variant with W351F relative to SEQ ID NO: 1 (protein, listed as Sarocladium strictum)
chain: NSINACLAAADVEFHEEDSEGWEMDGTAFNLRVDYDPVAIAIPRSTEDIAAAVQCGLDAGVQISAKGGGHSYGSYGFGGEDGHLMLELDRMYRVSVDDDNVATIQGGARLGYTALELLDQGNRALTHGTCPAVGIGGHVLGGGYGFATHTHGLTLDWLVGATVVLADASIVHVSKTENADLFWALRGGGGGFAIVSEFEFNTFEAPEIITTYQVTTTWNRKQHVAGLKALQDWAENTMPRELSMRLEINANALNWEGNYFGNAKDLKKVLQPIMKKAGGKSTISKLVETDWYGQINTYLYGADLNITYNYDVHEYFYANSLTAPRLSDEAISAFVDYKFDNSSVRPGRGWFIQWDFHGGKNSALASHSNDETAYAHRDQLWLWQFYDNIYDYENNTSPYPESGFEFMQGFVATIEDTLPEDRKGKYFNYADTTLDKEEAQKLYWRGNLEKLQAIKAKYDPEDVFGNVVSVEPIA
modifications: (1)..(206) FAD-binding domain; (207)..(474) substrate-binding domain
B7: Q384A: GOOX variant with Q384A relative to SEQ ID NO: 1 (protein, listed as Sarocladium strictum)
chain: NSINACLAAADVEFHEEDSEGWEMDGTAFNLRVDYDPVAIAIPRSTEDIAAAVQCGLDAGVQISAKGGGHSYGSYGFGGEDGHLMLELDRMYRVSVDDDNVATIQGGARLGYTALELLDQGNRALTHGTCPAVGIGGHVLGGGYGFATHTHGLTLDWLVGATVVLADASIVHVSKTENADLFWALRGGGGGFAIVSEFEFNTFEAPEIITTYQVTTTWNRKQHVAGLKALQDWAENTMPRELSMRLEINANALNWEGNYFGNAKDLKKVLQPIMKKAGGKSTISKLVETDWYGQINTYLYGADLNITYNYDVHEYFYANSLTAPRLSDEAISAFVDYKFDNSSVRPGRGWWIQWDFHGGKNSALASHSNDETAYAHRDQLWLWAFYDNIYDYENNTSPYPESGFEFMQGFVATIEDTLPEDRKGKYFNYADTTLDKEEAQKLYWRGNLEKLQAIKAKYDPEDVFGNVVSVEPIA
modifications: (1)..(206) FAD-binding domain; (207)..(474) substrate-binding domain
B8: Q384N: GOOX variant with Q384N relative to SEQ ID NO: 1 (protein, listed as Sarocladium strictum)
chain: NSINACLAAADVEFHEEDSEGWEMDGTAFNLRVDYDPVAIAIPRSTEDIAAAVQCGLDAGVQISAKGGGHSYGSYGFGGEDGHLMLELDRMYRVSVDDDNVATIQGGARLGYTALELLDQGNRALTHGTCPAVGIGGHVLGGGYGFATHTHGLTLDWLVGATVVLADASIVHVSKTENADLFWALRGGGGGFAIVSEFEFNTFEAPEIITTYQVTTTWNRKQHVAGLKALQDWAENTMPRELSMRLEINANALNWEGNYFGNAKDLKKVLQPIMKKAGGKSTISKLVETDWYGQINTYLYGADLNITYNYDVHEYFYANSLTAPRLSDEAISAFVDYKFDNSSVRPGRGWWIQWDFHGGKNSALASHSNDETAYAHRDQLWLWNFYDNIYDYENNTSPYPESGFEFMQGFVATIEDTLPEDRKGKYFNYADTTLDKEEAQKLYWRGNLEKLQAIKAKYDPEDVFGNVVSVEPIA
modifications: (1)..(206) FAD-binding domain; (207)..(474) substrate-binding domain

How the values were obtained:
[1] = Activity screening of GOOX variants and glucose oxidase on GlcA; assay type: biochemical; conditions: for nmol oxidized GlcA Mean: enzyme 16 nM, 37° C., 10 mM GlcA (FIG. 11 legend; b102 says 100 mM), 100 mM Tris pH 8.0 (GOOX variants) or 50 mM sodium acetate pH 5.0 (GO); for activity with GlcA as substrate (in words): screening, compared with wtGOOX
Procedure: (§1) FIG. 11: Activity screening of GOOX variants and glucose oxidase (GO) on GlcA and MeGlcA substrates. The enzymes (16 nM) were assayed at 37° C. with 10 mM GlcA and 1 mM MeGlcA in 100 mM Tris buffer pH 8.0 (for GOOX variants) or 50 mM sodium acetate pH 5.0 (for GO). The dotted line indicates the activity of GOOX-VN for MeGlcA for ease of comparison. “CtCBM22A-wtGOOX” and “CtCBM22A-Y300A” represent fusion proteins where the C terminus of the xylan-binding protein CtCBM22A (described in Vuong and Master, 2014) is fused to the N terminus GOOX.
(§2) The specific activity of GOOX-Y300A (16 nM) on MeGlcA and GlcA (1 mM) was measured in 50 mM Tris buffer pH 8.0 at 40° C. The amount of methyl glucaric acid was determined by measuring the release of H2O2 using a previously published colorimetric assay (Lin et al., 1991). The kinetics of GOOX-Y300A on these acidic sugars were measured at the same condition, but using up to 60 mM MeGlcA and GlcA and in 0.3 M Tris buffer pH 8.0.

[2] = Activity screening of GOOX variants and glucose oxidase on MeGlcA; assay type: biochemical; conditions: enzyme 16 nM, 37° C., 1 mM MeGlcA (FIG. 11 legend; b102 says 10 mM), 100 mM Tris pH 8.0 (GOOX variants) or 50 mM sodium acetate pH 5.0 (GO)
Procedure: as §1, §2

Row | Molecule | nmol oxidized GlcA Mean [1] | activity with GlcA as substrate (in words) [1] | nmol oxidized MeGlcA Mean [2]
1 | B1 | 0.06492 nmol | improved activity over wtGOOX | 0.7166 nmol
2 | B2 | 0.05212 nmol | improved activity over wtGOOX | 0.594 nmol
3 | B3 | 0.09327 nmol | improved activity over wtGOOX | 0.4522 nmol
4 | B4 | -0.03749 nmol |  | 0.08201 nmol
5 | B5 | -0.03292 nmol |  | 1.0403 nmol
6 | B6 | -0.04298 nmol |  | 0.08201 nmol
7 | B7 | -0.00914 nmol |  | 0.4569 nmol
8 | B8 | -0.02195 nmol |  | 0.683 nmol
